Assay results from patent US20070016969.

Molecular target: hirudin in milk of BC1-GB-Hir transgenic mice (UniProt P01050)
Sequence (P01050 whole entry): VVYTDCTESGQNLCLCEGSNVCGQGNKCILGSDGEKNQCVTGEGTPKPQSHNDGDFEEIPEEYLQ

Substance: thrombin (thrombin solution, 50 U/ml)
- anti-coagulation activity (chromogenic thrombin substrate Tos-Gly-Pro-Arg-4-NA, A405): milk collected from lactating transgenic mice of the invention has a high level of anti-coagulation activity in comparison with that from non-transgenic mice (normal mouse milk)
